In patent US20120177664A1 (IMMUNAS PHARMA, published 2012):
Changes are numbered by the printed parent chain.

B1: IR-127 antibody (antibody, mouse IgG2a, V domains shown)
VH: DVQLVESGGGLVQPGGSRKLSCAASGFTFSSFGMHWVRQAPEKGLEWVAYISSGSSTIYYADTVKGRFTISRDNPKNTLFLQMTSLRSEDTAMYYCARKGTYYRYDAFDYWGQGTTLTVSS
VL: DVLMTQTPLSLPVSLGDQASISCRSSQSIVHSNGNTYLEWYLQKPGQSPKLLIYKVSNRFSGVPDRFSGSGSGTDFTLKISRVEAEDLGVYYCFQGSHVPPTFGGGTKLEIK
notes: mouse IgG2a
B2: IR-128 antibody (antibody, V domains shown)
VH: DVQLVESGGGLVQPGGSRKLSCAASGFTFSSFGMHWVRQAPEKGLEWVAYISSGSSTIYYADTVKGRFTISRDNPKNTLFLQMTSLRSEDTAMYYCAREGHFDYWGQGTTLTVSS
VL: B1 VL with L3V, I29L, E39H, Y92F, F94S, G96S, S97T
notes: mouse IgG2a
B3: IR-063 antibody (antibody, mouse IgG2b, V domains shown)
VH: B2 VH with H101D
VL: B1 VL with L3V, I29L, E39H, Y92F, F94S, G96S, S97T, P101L, G105A, I111L
notes: mouse IgG2b
B4: IR-067 antibody (antibody, mouse IgG2b, V domains shown)
VH: DVQLVESGGGLVQPGGSRKLSCAASGFTFSSFGMHWVRQAPEKGLEWVAYISSGSSTIYYADTVKGRFTISRDNPKNTLFLQMTSLRSEDTAMYYCARSGGNYLMDYWGQGTSVTVSS
VL: B1 VL with P101L, G105A, I111L
notes: mouse IgG2b
B5: IR-081 antibody (antibody, mouse IgG2b, V domains shown)
VH: B4 VH with S99R, G100W, N102E, Y103G, L104A
VL: B1 VL
notes: mouse IgG2b
B6: IR-083 antibody (antibody, mouse IgG2b, V domains shown)
VH: B4 VH with S31R, H35Y, T63I, S99R, G101Y, N102Y, Y103E, L104A
VL: B1 VL with E86D
notes: mouse IgG2b
B7: IR-152 antibody (antibody, mouse IgG2b, V domains shown)
VH: B4 VH with S99G, G101H, N102V, Y103G, L104A
VL: B1 VL with L3V, I29L, E39H, Y92F, F94S, G96S, S97T, P101W
notes: mouse IgG2b
B8: IR-079 antibody (antibody, mouse IgG2b, V domains shown)
VH: DVQLVESGGGLVQPGGSRKLSCAASGFTFSSFGMHWVRQAPEKGLEWVAYISSGSSTIYYADTVKGRFTISRDNPKNTLFLQMTSLRSEDTAMYYCARYGTLYYYAMDYWGQGTSVTVSS
VL: B1 VL
notes: mouse IgG2b
B9: IR-094 antibody (antibody, mouse IgG2b, V domains shown)
VH: EVKLEESGGGLVQPGGSMKLSCVASGFTFSNYWMNWVRQSPEKGLEWVAEIRLKSNNYATHYAESVKGRFTISRDDSKSSVYLQMNNLRAEDTGIYYCTRRGPSGYDRAWFAYWGQGTLVTVSA
VL: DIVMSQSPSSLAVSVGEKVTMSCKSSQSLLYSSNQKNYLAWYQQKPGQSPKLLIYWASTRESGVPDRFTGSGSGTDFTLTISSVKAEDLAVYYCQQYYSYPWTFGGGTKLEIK
notes: mouse IgG2b
B10: IR-097 antibody (antibody, mouse IgG2b, V domains shown)
VH: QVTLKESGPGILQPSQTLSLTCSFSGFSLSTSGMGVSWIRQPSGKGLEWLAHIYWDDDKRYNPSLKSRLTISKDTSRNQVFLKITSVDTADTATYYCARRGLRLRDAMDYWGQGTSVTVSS
VL: B1 VL with P101L, G105A, I111L
notes: mouse IgG2b
B11: IR-108 antibody (antibody, mouse IgG2a, V domains shown)
VH: QVTLKESGPGILKPSQTLSLTCSFSGFSLSTSGMGVGWIRQPSGKGLEWLAHIWWDDDKYYNPSLKSQLTISKDTSRNQVFLKITSVDTADTATYYCARRGLRRGDYFDYWGQGTTLTVSS
VL: B1 VL with P101L, G105A, I111L
notes: mouse IgG2a
B12: IR-098 antibody (antibody, mouse IgG2b, V domains shown)
VH: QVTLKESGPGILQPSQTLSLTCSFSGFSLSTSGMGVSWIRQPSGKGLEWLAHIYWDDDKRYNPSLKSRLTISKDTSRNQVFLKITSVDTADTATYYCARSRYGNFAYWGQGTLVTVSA
VL: B1 VL with P101L, G105A, I111L
notes: mouse IgG2b
B13: IR-107 antibody (antibody, mouse IgG2b, V domains shown)
VH: DVQLVESGGGLVQPGGSRKLSCAASGFTFSSFGMHWVRQAPEKGLEWVAYISSGSSTIYYADTVKGRFTISRDNPKNTLFLQMTSLRSEDTAMYYCARYGYAMDYWGQGTSVTVSS
VL: B1 VL
notes: mouse IgG2b
B14: IR-110 antibody (antibody, mouse IgG2b, V domains shown)
VH: B13 VH with R98S, Y101N, A102Y, M103G, D104A, S111L, S116A
VL: B1 VL
notes: mouse IgG2b
B15: IR-112 antibody (antibody, mouse IgG2a, V domains shown)
VH: QVTLKESGPGILKPSQTLSLTCSFSGFSLSTSGMGVGWIRQPSGKGLEWLAHIWWDDDKYYNPSLKSQLTISKDTSRNQVFLKITSVDTADTATYYCARRSMITTNDYFDYWGQGTTLTVSS
VL: B1 VL
notes: mouse IgG2a
B16: IR-117 antibody (antibody, mouse IgG2b, V domains shown)
VH: not shown
VL: B1 VL with L3V, I29L, E39H, Y92F, F94S, G96S, S97T, P101L, G105A, I111L
notes: mouse IgG2b
B17: IR-118 antibody (antibody, mouse IgG2a, V domains shown)
VH: QVQLKESGPGLVAPSQSLSITCTISGFSLTSYGVHWVRQPPGKGLEWLVVIWSDGSTTYNSALKSRLSISKDNSKSQLFLKMNSLQTDDTAMYYCARHSYRYGLMDYWGQGTSVTVSS
VL: B1 VL with L3V, I29L, E39H, Y92F, F94S, G96S, S97T, P101L, G105A, I111L
notes: mouse IgG2a
B18: IR-132 antibody (antibody, mouse IgG2b, V domains shown)
VH: DVQLVESGGGLVQPGGSRKLSCAASGFTFSSFGMHWVRQAPEKGLEWVAYISSGSSTIYYADTVKGRFTISRDNPKNTLFLQMTSLRSEDTAMYYCARDGNYVGWFAYWGQGTLVTVSA
VL: B1 VL with L3V, I29L, E39H, Y92F, F94S, G96S, S97T, P101L, G105A, I111L
notes: mouse IgG2b
B19: IR-135 antibody (antibody, V domains shown)
VH: QVQLQQSGAELAKPGASVKMSCKASGYTFTSYWMHWVKQRPGQGLEWIGYINPSTGYTEYNQKFKDKATLTADKSSSTAYMQLSSLTSEDSAVYYCDYYGSSYGYFDVWGAGTTVTVSS
VL: DVVMTQTPLSLPVSLGDQASISCRSSQSLVHSNGNTYLHWYLQKPGQSPKLLIYKVSNRFSGVPDRFSGSGSGTDFTLKISRVEAEDLGVFFCSQSTHVPLTFGAGTKLELK
notes: mouse IgG2a
B20: IR-139 antibody (antibody, mouse IgG2b, V domains shown)
VH: B13 VH with Y99D, G100E, Y101G, A102Y, M103F, S111T, V112L
VL: B19 VL with F91Y
notes: mouse IgG2b
B21: IR-150 antibody (antibody, mouse IgG2b, V domains shown)
VH: not shown
VL: B19 VL with F91Y
notes: mouse IgG2b
B22: IR-154 antibody (antibody, V domains shown)
VH: B8 VH with T28S, S55R, Y99L, G100R, T101G, L102N, Y103L, Y104D
VL: B19 VL with F91Y, L101F, A105S, L111I
notes: mouse IgG2a
B23: IR-155 antibody (antibody, V domains shown)
VH: DVQLVESGGGLVQPGGSRKLSCAASGFTFSSFGMHWVRQAPEKGLEWVAYISSGSSTIYYADTVKGRFTISRDNPKNTLFLQMTSLRSEDTAMYYCARLDGYRGDYWGQGTTLTVSS
VL: B19 VL with F91Y, A105S, L111I
notes: mouse IgG2a

What follows are binders tested against T1, A beta oligomer (synthetic A beta1-40, HCl form, 0.1 mg/ml in PBS, incubated at 37 degrees C for one hour) (UniProt P05067 672-711) (assay: SPR (Biacore 3000)).
T1 construct: domain: A beta1-40; non-fibrous multimer of the peptide; also called A beta 1-40 oligomer
Description: The analysis was carried out by Surface Plasmon Resonance (SPR) using Biacore 3000 (GE Healthcare Sciences).
With B1 the Kd was 1020 nM, the koff was 0.261 s⁻¹ and the kon was 256000 M⁻¹ s⁻¹. In the case of B2, the Kd is reported as 1070 nM, the koff is reported as 0.37 s⁻¹ and the kon is reported as 345000 M⁻¹ s⁻¹. B3 gave a Kd of 1270 nM, a koff of 0.145 s⁻¹ and a kon of 114000 M⁻¹ s⁻¹. B4 showed a Kd of 549 nM, a koff of 0.118 s⁻¹ and a kon of 215000 M⁻¹ s⁻¹. B5 was tested, and the Kd was 1250 nM, the koff was 0.421 s⁻¹ and the kon was 336000 M⁻¹ s⁻¹. B6 gave a Kd of 699 nM, a koff of 0.431 s⁻¹ and a kon of 617000 M⁻¹ s⁻¹. In the case of B7, the Kd is reported as 58.8 nM, the koff is reported as 0.00227 s⁻¹ and the kon is reported as 38600 M⁻¹ s⁻¹. For B8, the Kd was 1050 nM, the koff was 0.297 s⁻¹ and the kon was 282000 M⁻¹ s⁻¹. Work on B9 yielded a Kd of 59.4 nM, a koff of 0.0215 s⁻¹ and a kon of 362000 M⁻¹ s⁻¹. In the case of B10, the Kd is reported as 15.7 nM, the koff is reported as 0.00303 s⁻¹ and the kon is reported as 193000 M⁻¹ s⁻¹. In the case of B11, the Kd is reported as 11.8 nM, the koff is reported as 0.00296 s⁻¹ and the kon is reported as 250000 M⁻¹ s⁻¹. With B12 the Kd was 36.3 nM, the koff was 0.0138 s⁻¹ and the kon was 380000 M⁻¹ s⁻¹. In the case of B13, the Kd is reported as 339 nM, the koff is reported as 0.1 s⁻¹ and the kon is reported as 295000 M⁻¹ s⁻¹. In the case of B14, the Kd is reported as 177 nM, the koff is reported as 0.0719 s⁻¹ and the kon is reported as 407000 M⁻¹ s⁻¹. B15 gave a Kd of 41.1 nM, a koff of 0.00376 s⁻¹ and a kon of 91400 M⁻¹ s⁻¹. With B16 the Kd was 921 nM, the koff was 0.0668 s⁻¹ and the kon was 72500 M⁻¹ s⁻¹. Binder B17 has a Kd of 27.5 nM, a koff of 0.00153 s⁻¹ and a kon of 55700 M⁻¹ s⁻¹. With B18 the Kd was 22.1 nM, the koff was 0.00517 s⁻¹ and the kon was 234000 M⁻¹ s⁻¹. With B19 the Kd was 1290 nM, the koff was 0.116 s⁻¹ and the kon was 89900 M⁻¹ s⁻¹. With B20 the Kd was 50.6 nM, the koff was 0.00165 s⁻¹ and the kon was 32600 M⁻¹ s⁻¹. For B21, the Kd was 517 nM, the koff was 0.124 s⁻¹ and the kon was 240000 M⁻¹ s⁻¹. With B22 the Kd was 1050 nM, the koff was 0.41 s⁻¹ and the kon was 389000 M⁻¹ s⁻¹. With B23 the Kd was 1050 nM, the koff was 0.37 s⁻¹ and the kon was 351000 M⁻¹ s⁻¹.
